Source: the Immune Epitope Database (IEDB)

Assays:
HLA-B*07:02 [1] = test: IEDB peptide-MHC binding, purified MHC/competitive/fluorescence; ≥ and ≤ were set here for values at or beyond the usual limits of such assays
HLA-A*24:03 = test: IEDB peptide-MHC binding, purified MHC/direct/fluorescence; filed as Kd, often an IC50 or EC50 that approximates it; ≥ and ≤ were set here for values at or beyond the usual limits of such assays
HLA-C*07:02 = test: as above
HLA-A*02:11 = test: as above; settings: source organism: Limestone Canyon virus
HLA-A*02:12 = test: as above; settings: source organism: Limestone Canyon virus
HLA-A*02:19 = test: as above; settings: source organism: Limestone Canyon virus
HLA-A*02:03 = test: as above; settings: source organism: Limestone Canyon virus
HLA-A*02:16 = test: as above; settings: source organism: Limestone Canyon virus
HLA-A*68:02 = test: as above; settings: source organism: Limestone Canyon virus
HLA-A*03:01 [2] = test: as above
HLA-A*02:01 [3] = test: IEDB peptide-MHC binding, purified MHC/competitive/fluorescence; filed as Kd, often an IC50 or EC50 that approximates it; ≥ and ≤ were set here for values at or beyond the usual limits of such assays
HLA-A*26:01 [4] = test: as above; settings: source organism: Orthohantavirus sinnombreense
HLA-B*15:17 = test: as above; settings: source organism: Orthohantavirus sinnombreense
HLA-B*51:01 = test: as above; settings: source organism: Orthohantavirus sinnombreense
HLA-B*27:05 [5] = test: as above; settings: source organism: Orthohantavirus sinnombreense
HLA-B*57:01 = test: as above; settings: source organism: Orthohantavirus sinnombreense
HLA-B*39:01 = test: as above; settings: source organism: Orthohantavirus sinnombreense
HLA-B*18:01 = test: as above; settings: source organism: Orthohantavirus sinnombreense
HLA-B*15:01 [6] = test: as above; settings: source organism: Orthohantavirus sinnombreense
HLA-B*46:01 = test: as above; settings: source organism: Orthohantavirus sinnombreense
HLA-A*02:01 [7] = test: IEDB peptide-MHC binding, purified MHC/competitive/fluorescence; ≥ and ≤ were set here for values at or beyond the usual limits of such assays
HLA-A*11:01 [8] = test: IEDB peptide-MHC binding, purified MHC/competitive/radioactivity; filed as Kd, often an IC50 or EC50 that approximates it; ≥ and ≤ were set here for values at or beyond the usual limits of such assays; settings: source organism: Vaccinia virus WR
HLA-A*68:01 = test: as above; settings: source organism: Vaccinia virus WR
HLA-A*31:01 [9] = test: as above; settings: source organism: Vaccinia virus WR
HLA-A*33:01 = test: as above; settings: source organism: Vaccinia virus WR
HLA-A*03:01 [10] = test: as above; settings: source organism: Vaccinia virus WR
HLA-A*01:01 [11] = test: IEDB peptide-MHC binding, purified MHC/competitive/fluorescence; ≥ and ≤ were set here for values at or beyond the usual limits of such assays
HLA-B*15:01 [12] = test: as above
HLA-A*02:01 [13] = test: IEDB peptide-MHC binding, purified MHC/direct/fluorescence; filed as Kd, often an IC50 or EC50 that approximates it; ≥ and ≤ were set here for values at or beyond the usual limits of such assays; settings: source organism: Giardia lamblia ATCC 50803
HLA-A*26:01 [14] = test: as above; settings: source organism: Giardia lamblia ATCC 50803
HLA-B*27:05 [15] = test: as above; settings: source organism: Giardia lamblia ATCC 50803
HLA-A*01:01 [16] = test: as above; settings: source organism: Giardia lamblia ATCC 50803
HLA-B*40:01 = test: as above; settings: source organism: Giardia lamblia ATCC 50803
HLA-A*11:01 [17] = test: as above; settings: source organism: Giardia lamblia ATCC 50803
HLA-A*31:01 [18] = test: as above; settings: source organism: Giardia lamblia ATCC 50803
HLA-B*58:01 = test: as above; settings: source organism: Giardia lamblia ATCC 50803
HLA-B*07:02 [19] = test: as above; settings: source organism: Giardia lamblia ATCC 50803
HLA-A*69:01 = test: as above; settings: source organism: Giardia lamblia ATCC 50803
HLA-B*08:01 = test: as above; settings: source organism: Giardia lamblia ATCC 50803
HLA-A*30:01 = test: as above; settings: source organism: Giardia lamblia ATCC 50803
HLA-B*15:01 [20] = test: as above; settings: source organism: Giardia lamblia ATCC 50803
HLA-A*11:01 [21] = test: IEDB peptide-MHC binding, purified MHC/competitive/fluorescence; ≥ and ≤ were set here for values at or beyond the usual limits of such assays
HLA-A*03:01 [22] = test: as above
HLA-C*15:02 = test: IEDB peptide-MHC binding, purified MHC/direct/fluorescence; filed as Kd, often an IC50 or EC50 that approximates it; ≥ and ≤ were set here for values at or beyond the usual limits of such assays; settings: source organism: Cytophaga hutchinsonii ATCC 33406
HLA-C*06:02 = test: as above; settings: source organism: Dengue virus 2 Jamaica/1409/1983
HLA-B*08:02 = test: as above; settings: source organism: dengue virus type 4
HLA-A*24:02 = test: IEDB peptide-MHC binding, purified MHC/competitive/fluorescence; ≥ and ≤ were set here for values at or beyond the usual limits of such assays; settings: source organism: Zaire ebolavirus
[23] = source organism: Limestone Canyon virus
[24] = source organism: Orthohantavirus sinnombreense
[25] = source organism: Zaire ebolavirus
[26] = source organism: Vaccinia virus Copenhagen
[27] = source organism: Giardia lamblia ATCC 50803
[28] = source organism: Vaccinia virus

For IPSSSPTTA, the IC50 (HLA-B*07:02 [1]; source organism: Sudan ebolavirus) was 22.1 µM.

With YRTLGVFRY the Kd (HLA-A*24:03; [23]) was ≥ 20 µM, the Kd (HLA-C*07:02; [24]) was 0.048 µM and the Kd (HLA-A*02:11) was ≥ 20 µM. The Kd (HLA-A*02:12) was ≥ 20 µM, the Kd (HLA-A*02:19) was ≥ 20 µM and the Kd (HLA-A*02:03) was ≥ 20 µM. The Kd (HLA-A*02:16) was ≥ 20 µM, the Kd (HLA-A*68:02) was ≥ 20 µM and the Kd (HLA-A*03:01 [2]; [23]) was ≥ 20 µM. The Kd (HLA-A*02:01 [3]; [24]) was ≥ 20 µM, the Kd (HLA-A*26:01 [4]) was ≥ 20 µM and the Kd (HLA-B*15:17) was ≥ 20 µM. The Kd (HLA-B*51:01) was ≥ 20 µM, the Kd (HLA-B*27:05 [5]) was 0.144 µM and the Kd (HLA-B*57:01) was ≥ 20 µM. The Kd (HLA-B*39:01) was ≥ 20 µM, the Kd (HLA-B*18:01) was ≥ 20 µM and the Kd (HLA-B*15:01 [6]) was ≥ 20 µM. For the same sequence, the Kd (HLA-B*46:01) was ≥ 20 µM.

YTSGKRSNT was tested, and the IC50 (HLA-A*02:01 [7]; [25]) was ≥ 354 µM and the IC50 (HLA-B*07:02 [1]; [25]) was 5.9 µM.

MLEGETKLY was tested, and the Kd (HLA-A*11:01 [8]) was 7.06 µM, the Kd (HLA-A*68:01) was 17 µM and the Kd (HLA-A*31:01 [9]) was ≥ 61.4 µM. For the same sequence, the Kd (HLA-A*33:01) was ≥ 57.1 µM, the Kd (HLA-A*03:01 [10]) was 0.22 µM and the IC50 (HLA-A*02:01 [7]; [26]) was ≥ 166 µM. For the same sequence, the IC50 (HLA-A*01:01 [11]; [26]) was 8.1 µM and the IC50 (HLA-B*15:01 [12]; [26]) was 61.7 µM.

In the case of DSDNTQSEH, the IC50 (HLA-A*01:01 [11]; [25]) is reported as ≥ 84.2 µM.

For KVGVYKMHK, the Kd (HLA-A*02:01 [13]) was ≥ 20 µM, the Kd (HLA-A*26:01 [14]) was ≥ 20 µM and the Kd (HLA-B*27:05 [15]) was ≥ 20 µM. The Kd (HLA-A*01:01 [16]) was ≥ 20 µM, the Kd (HLA-B*40:01) was ≥ 20 µM and the Kd (HLA-A*11:01 [17]) was 0.0334 µM. The Kd (HLA-A*24:03; [27]) was ≥ 20 µM, the Kd (HLA-A*31:01 [18]) was 0.0552 µM and the Kd (HLA-B*58:01) was ≥ 20 µM. The Kd (HLA-B*07:02 [19]) was ≥ 20 µM, the Kd (HLA-A*69:01) was ≥ 20 µM and the Kd (HLA-B*08:01) was ≥ 20 µM. For the same sequence, the Kd (HLA-A*30:01) was 0.0152 µM, the Kd (HLA-B*15:01 [20]) was ≥ 20 µM and the Kd (HLA-A*03:01 [2]; [27]) was 0.163 µM.

With AVDRGCLRI the IC50 (HLA-A*02:01 [7]; [28]) was 3.51 µM, the IC50 (HLA-A*01:01 [11]; [28]) was ≥ 183 µM and the IC50 (HLA-A*11:01 [21]; [28]) was 11.8 µM. It also gave an IC50 (HLA-A*03:01 [22]; [28]) of 16.1 µM.

With GLADAFILL the Kd (HLA-C*15:02) was ≥ 20 µM and the Kd (HLA-A*02:01 [3]; source organism: Cytophaga hutchinsonii ATCC 33406) was 0.0006 µM.

For FRKKRLTIM, the Kd (HLA-C*07:02; source organism: Dengue virus 2 Jamaica/1409/1983) was 0.446 µM, the Kd (HLA-C*06:02) was 0.018 µM and the Kd (HLA-B*08:02) was 4.43 µM.

Sequence FLESGAVKY has an IC50 (HLA-A*02:01 [7]; [25]) of 26.3 µM, an IC50 (HLA-A*01:01 [11]; [25]) of 3.4 µM and an IC50 (HLA-B*15:01 [12]; [25]) of 19.5 µM.

LSGVNNLEH was tested, and the IC50 (HLA-A*01:01 [11]; [25]) was ≥ 167 µM, the IC50 (HLA-A*11:01 [21]; [25]) was 5.06 µM and the IC50 (HLA-A*03:01 [22]; [25]) was 43.5 µM.

RTFSIPLGV gave an IC50 (HLA-A*02:01 [7]; [25]) of 0.321 µM, an IC50 (HLA-A*24:02) of 33 µM and an IC50 (HLA-A*11:01 [21]; [25]) of 1.62 µM. For the same sequence, the IC50 (HLA-B*07:02 [1]; [25]) was ≥ 167 µM, the IC50 (HLA-B*15:01 [12]; [25]) was ≥ 221 µM and the IC50 (HLA-A*03:01 [22]; [25]) was 3.46 µM.
